Data reported in the supplement of paper PMC9112550, “Optimization of the antimicrobial peptide Bac7 by deep mutational scanning” (BMC Biology, 2022).

These sequences were tested on Escherichia coli TOP10 (assay: shrunken log2 fold change of peptide-encoding DNA abundance (4.5 h post-induction vs induction); higher = less antimicrobial activity (less host growth inhibition)). Conditions: time post-induction: 4.5 h; library: site-saturation at positions 5, 18, 19, 20.
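Further: peptides expressed intracellularly from a pBAD plasmid library in pooled LB shake-flask culture, induced with 0.3% L-arabinose, DNA abundance read by NGS, three biological replicates, DESeq2 with apeglm shrinkage.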

| Sequence | shrunken log2 fold change |
| --- | --- |
| RRIRGRPPRLPRPRPRPNFIPRP | -0.00471 |
| RRIRGRPPRLPRPRPRPFVTPRP | 0.0292 |
| RRIRQRPPRLPRPRPRPIAKPRP | -0.00229 |
| RRIRVRPPRLPRPRPRPIMVPRP | -0.219 |
| RRIRKRPPRLPRPRPRPVGPPRP | 0.441 |
| RRIRGRPPRLPRPRPRPHWVPRP | 0.107 |
| RRIRLRPPRLPRPRPRPSRDPRP | 0.152 |
| RRIRKRPPRLPRPRPRPCFWPRP | 0.42 |
| RRIRERPPRLPRPRPRPFSWPRP | 0.0616 |
| RRIRLRPPRLPRPRPRPHCYPRP | 0.011 |
| RRIRPRPPRLPRPRPRPKPAPRP | 0.157 |
| RRIRDRPPRLPRPRPRPFWLPRP | 0.00235 |
| RRIRTRPPRLPRPRPRPYKSPRP | -0.118 |
| RRIRIRPPRLPRPRPRPIDKPRP | -0.364 |
| RRIRNRPPRLPRPRPRPWHHPRP | -0.209 |
| RRIRKRPPRLPRPRPRPAKHPRP | 0.0854 |
| RRIRKRPPRLPRPRPRPKNEPRP | 0.345 |
| RRIRGRPPRLPRPRPRPATGPRP | 0.308 |
| RRIRWRPPRLPRPRPRPKYGPRP | 0.085 |
| RRIRRRPPRLPRPRPRPRIRPRP | 0.179 |
| RRIRYRPPRLPRPRPRPNCYPRP | -0.0166 |
| RRIRHRPPRLPRPRPRPVGNPRP | 0.0182 |
| RRIRYRPPRLPRPRPRPVDHPRP | -0.328 |
| RRIRWRPPRLPRPRPRPQSYPRP | -0.0988 |
| RRIRFRPPRLPRPRPRPCTIPRP | -0.15 |

| Sequence | shrunken log2 fold change |
| --- | --- |
| RRIRHRPPRLPRPRPRPTEPPRP | 0.0484 |
| RRIRKRPPRLPRPRPRPILLPRP | -0.313 |
| RRIRGRPPRLPRPRPRPFYMPRP | -0.0339 |
| RRIRGRPPRLPRPRPRPVDIPRP | 0.183 |
| RRIRARPPRLPRPRPRPVGDPRP | 0.515 |
| RRIRKRPPRLPRPRPRPNNPPRP | -0.00604 |
| RRIRSRPPRLPRPRPRPNIAPRP | 0.0275 |
| RRIRIRPPRLPRPRPRPSWTPRP | -0.237 |
| RRIRSRPPRLPRPRPRPDPVPRP | 0.377 |
| RRIRFRPPRLPRPRPRPIFMPRP | -0.314 |
| RRIRVRPPRLPRPRPRPEAFPRP | 0.143 |
| RRIRNRPPRLPRPRPRPCMPPRP | -0.549 |
| RRIRKRPPRLPRPRPRPNQAPRP | -0.171 |
| RRIRFRPPRLPRPRPRPEENPRP | -0.00844 |
| RRIRHRPPRLPRPRPRPWHLPRP | -1.9 |
| RRIRERPPRLPRPRPRPFHDPRP | -0.291 |
| RRIRWRPPRLPRPRPRPIPCPRP | -0.0198 |
| RRIRIRPPRLPRPRPRPEYRPRP | -1.12 |
| RRIRARPPRLPRPRPRPYKRPRP | -0.23 |
| RRIRNRPPRLPRPRPRPHFPPRP | -0.186 |
| RRIRLRPPRLPRPRPRPLPYPRP | 0.514 |
| RRIRTRPPRLPRPRPRPMVQPRP | 0.0197 |
| RRIRLRPPRLPRPRPRPMQDPRP | 0.0525 |
| RRIRRRPPRLPRPRPRPNTMPRP | -0.262 |
| RRIRSRPPRLPRPRPRPDQNPRP | -0.182 |

| Sequence | shrunken log2 fold change |
| --- | --- |
| RRIRYRPPRLPRPRPRPPGCPRP | 0.334 |
| RRIRMRPPRLPRPRPRPRKEPRP | 0.704 |
| RRIRSRPPRLPRPRPRPIWDPRP | 0.309 |
| RRIRSRPPRLPRPRPRPWPTPRP | 0.219 |
| RRIRTRPPRLPRPRPRPQRGPRP | 0.31 |
| RRIRVRPPRLPRPRPRPTAAPRP | 0.09 |
| RRIRERPPRLPRPRPRPTCIPRP | -0.23 |
| RRIRWRPPRLPRPRPRPTYAPRP | -0.0208 |
| RRIRSRPPRLPRPRPRPDASPRP | 0.495 |
| RRIRHRPPRLPRPRPRPHGKPRP | -0.038 |
| RRIRTRPPRLPRPRPRPNWHPRP | -0.0773 |
| RRIRIRPPRLPRPRPRPGQMPRP | -0.0223 |
| RRIRARPPRLPRPRPRPFPVPRP | -0.0583 |
| RRIRHRPPRLPRPRPRPQEFPRP | -0.00101 |
| RRIRNRPPRLPRPRPRPKQWPRP | 0.217 |
| RRIRCRPPRLPRPRPRPELNPRP | -0.137 |
| RRIRPRPPRLPRPRPRPICAPRP | 0.0637 |
| RRIRMRPPRLPRPRPRPAERPRP | 0.385 |
| RRIRSRPPRLPRPRPRPYMMPRP | -0.36 |
| RRIRLRPPRLPRPRPRPIDRPRP | -0.241 |
| RRIRNRPPRLPRPRPRPPSWPRP | 0.161 |
| RRIRSRPPRLPRPRPRPDHAPRP | 0.0838 |
| RRIRIRPPRLPRPRPRPKTIPRP | -0.25 |
| RRIRYRPPRLPRPRPRPTADPRP | -0.119 |
| RRIRVRPPRLPRPRPRPCANPRP | -0.129 |

| Sequence | shrunken log2 fold change |
| --- | --- |
| RRIRIRPPRLPRPRPRPAVQPRP | -0.107 |
| RRIRHRPPRLPRPRPRPEFHPRP | -0.0718 |
| RRIRNRPPRLPRPRPRPEAMPRP | 0.616 |
| RRIRLRPPRLPRPRPRPSNNPRP | -0.928 |
| RRIRRRPPRLPRPRPRPYSGPRP | -0.000826 |
| RRIRARPPRLPRPRPRPDCGPRP | 0.966 |
| RRIRNRPPRLPRPRPRPFVWPRP | -0.0187 |
| RRIRQRPPRLPRPRPRPMRRPRP | 0.225 |
| RRIRYRPPRLPRPRPRPFMDPRP | -0.2 |
| RRIRCRPPRLPRPRPRPMYQPRP | -0.265 |
| RRIRPRPPRLPRPRPRPQFRPRP | -0.0113 |
| RRIRPRPPRLPRPRPRPDLLPRP | -0.0805 |
| RRIRPRPPRLPRPRPRPPCTPRP | 0.00476 |
| RRIRWRPPRLPRPRPRPLQSPRP | 0.153 |
| RRIRDRPPRLPRPRPRPQGIPRP | -0.0548 |
| RRIRDRPPRLPRPRPRPRTCPRP | -0.0386 |
| RRIRLRPPRLPRPRPRPKVSPRP | 0.0482 |
| RRIRARPPRLPRPRPRPYAQPRP | -0.181 |
| RRIRCRPPRLPRPRPRPKRRPRP | 0.0984 |
| RRIRERPPRLPRPRPRPMRNPRP | -0.062 |
| RRIRHRPPRLPRPRPRPAKSPRP | 0.076 |
| RRIRSRPPRLPRPRPRPDYGPRP | -0.0953 |
| RRIRFRPPRLPRPRPRPKLNPRP | -0.193 |
| RRIRTRPPRLPRPRPRPKSHPRP | -0.365 |
| RRIRARPPRLPRPRPRPCHWPRP | -0.153 |

| Sequence | shrunken log2 fold change |
| --- | --- |
| RRIRPRPPRLPRPRPRPTTWPRP | 0.176 |
| RRIRKRPPRLPRPRPRPGSYPRP | -0.00588 |
| RRIRHRPPRLPRPRPRPTWVPRP | 0.078 |
| RRIRLRPPRLPRPRPRPTPYPRP | -0.00235 |
| RRIRLRPPRLPRPRPRPFHQPRP | -1 |
| RRIRSRPPRLPRPRPRPTWHPRP | 0.179 |
| RRIRLRPPRLPRPRPRPEQDPRP | -0.125 |
| RRIRRRPPRLPRPRPRPDDTPRP | 0.139 |
| RRIRARPPRLPRPRPRPNGAPRP | 0.0281 |
| RRIRQRPPRLPRPRPRPSCWPRP | 0.188 |
| RRIRMRPPRLPRPRPRPIGIPRP | -0.0706 |
| RRIRVRPPRLPRPRPRPPDRPRP | 0.379 |
| RRIRWRPPRLPRPRPRPVSCPRP | 0.0517 |
| RRIRNRPPRLPRPRPRPVYFPRP | -0.301 |
| RRIRCRPPRLPRPRPRPMIVPRP | 0.0976 |
| RRIRSRPPRLPRPRPRPETGPRP | 0.105 |
| RRIRRRPPRLPRPRPRPKRLPRP | 0.191 |
| RRIRCRPPRLPRPRPRPWNEPRP | -0.705 |
| RRIRVRPPRLPRPRPRPNNAPRP | -0.0777 |
| RRIRFRPPRLPRPRPRPEGVPRP | -0.175 |
| RRIRDRPPRLPRPRPRPAWFPRP | 0.118 |
| RRIRVRPPRLPRPRPRPFMVPRP | -0.43 |
| RRIRDRPPRLPRPRPRPGAYPRP | 0.136 |
| RRIRSRPPRLPRPRPRPADFPRP | -0.0669 |
| RRIRIRPPRLPRPRPRPIIAPRP | -0.389 |

| Sequence | shrunken log2 fold change |
| --- | --- |
| RRIRYRPPRLPRPRPRPDDQPRP | -0.0136 |
| RRIRKRPPRLPRPRPRPYRIPRP | -0.0846 |
| RRIRDRPPRLPRPRPRPVSNPRP | 0.00716 |
| RRIRNRPPRLPRPRPRPHDDPRP | 0.008 |
| RRIRGRPPRLPRPRPRPKNVPRP | 0.0302 |
| RRIRVRPPRLPRPRPRPNNYPRP | -0.726 |
| RRIRTRPPRLPRPRPRPVPSPRP | 0.0454 |
| RRIRMRPPRLPRPRPRPHVMPRP | -0.192 |
| RRIRMRPPRLPRPRPRPMENPRP | 0.76 |
| RRIRPRPPRLPRPRPRPWEQPRP | 0.201 |
| RRIRHRPPRLPRPRPRPMDGPRP | -0.0367 |
| RRIRWRPPRLPRPRPRPNECPRP | -0.437 |
| RRIRWRPPRLPRPRPRPVLHPRP | -0.0358 |
| RRIRHRPPRLPRPRPRPQEHPRP | -0.389 |
| RRIRERPPRLPRPRPRPQKMPRP | -0.28 |
| RRIRPRPPRLPRPRPRPASPPRP | 0.287 |
| RRIRVRPPRLPRPRPRPPMAPRP | 0.228 |
| RRIRPRPPRLPRPRPRPSCKPRP | -0.189 |
| RRIRKRPPRLPRPRPRPEFHPRP | 0.131 |
| RRIRVRPPRLPRPRPRPLDLPRP | -0.0307 |
| RRIRKRPPRLPRPRPRPSSWPRP | 0.147 |
| RRIRCRPPRLPRPRPRPTRAPRP | 0.632 |
| RRIRARPPRLPRPRPRPDENPRP | 1.2 |
| RRIRGRPPRLPRPRPRPHKFPRP | 0.151 |
| RRIRYRPPRLPRPRPRPHMPPRP | -0.38 |
